Test results as given in US20130195863A1, “Methods and Pharmaceutical Compositions for the Treatment of Bone Density Related Diseases” (priority 2010, published 2013).

B1: Slit2: natural ligand of ROBO1; tested as conditioned medium from HEK cells stably expressing human Slit-2 (protein)
chain: QCSCSGSTVDCHGLALRSVPRNIPRNTERLDLNGNNITRITKTDFAGLRHLRVLQLMENKISTIERGAFQDLKELERLRLNRNHLQLFPELLFLGTAKLYRLDLSENQIQAIPRKAFRGAVDIKNLQLDYNQISCIEDGAFRALRDLEVLTLNNNNITRLSVASFNHMPKLRTFRLHSNNLYCDCHLAWLSDWLRQRPRVGLYTQCMGPSHLRGHNVAEVQKREFVCSGHQSFMAPSCSVLHCPAACTCSNNIVDCRGKGLTEIPTNLPETITEIRLEQNTIKVIPPGAFSPYKKLRRIDLSNNQISELAPDAFQGLRSLNSLVLYGNKITELPKSLFEGLFSLQLLLLNANKINCLRVDAFQDLHNLNLLSLYDNKLQTIAKGTFSPLRAIQTMHLAQNPFICDCHLKWLADYLHTNPIETSGARCTSPRRLANKRIGQIKSKKFRCSAKEQYFIPGTEDYRSKLSGDCFADLACPEKCRCEGTTVDCSNQKLNKIPEHIPQYTAELRLNNNEFTVLEATGIFKKLPQLRKINFSNNKITDIEEGAFEGASGVNEILLTSNRLENVQHKMFKGLESLKTLMLRSNRITCVGNDSFIGLSSVRLLSLYDNQITTVAPGAFDTLHSLSTLNLLANPFNCNCYLAWLGEWLRKKRIVTGNPRCQKPYFLKEIPIQDVAIQDFTCDDGNDDNSCSPLSRCPTECTCLDTVVRCSNKGLKVLPKGIPRDVTELYLDGNQFTLVPKELSNYKHLTLIDLSNNRISTLSNQSFSNMTQLLTLILSYNRLRCIPPRTFDGLKSLRLLSLHGNDISVVPEGAFNDLSALSHLAIGANPLYCDCNMQWLSDWVKSEYKEPGIARCAGPGEMADKLLLTTPSKKFTCQGPVDVNILAKCNPCLSNPCKNDGTCNSDPVDFYRCTCPYGFKGQDCDVPIHACISNPCKHGGTCHLKEGEEDGFWCICADGFEGENCEVNVDDCEDNDCENNSTCVDGINNYTCLCPPEYTGELCEEKLDFCAQDLNPCQHDSKCILTPKGFKCDCTPGYVGEHCDIDFDDCQDNKCKNGAHCTDAVNGYTCICPEGYSGLFCEFSPPMVLPRTSPCDNFDCQNGAQCIVRINEPICQCLPGYQGEKCEKLVSVNFINKESYLQIPSAKVRPQTNITLQIATDEDSGILLYKGDKDHIAVELYRGRVRASYDTGSHPASAIYSVETINDGNFHIVELLALDQSLSLSVDGGNPKIITNLSKQSTLNFDSPLYVGGMPGKSNVASLRQAPGQNGTSFHGCIRNLYINSELQDFQKVPMQTGILPGCEPCHKKVCAHGTCQPSSQAGFTCECQEGWMGPLCDQRTNDPCLGNKCVHGTCLPINAFSYSCKCLEGHGGVLCDEEEDLFNPCQAIKCKHGKCRLSGLGQPYCECSSGYTGDSCDREISCRGERIRDYYQKQQGYAACQTTKKVSRLECRGGCAGGQCCGPLRSKRRKYSFECTDGSSFVDEVEKVVKCGCTRCVS
B2: ShRNA-RB1: small hairpin RNA against human Robo1, SEQ ID NO:1 forward and SEQ ID NO:2 reverse, under U6 promoter (nucleic acid)
sense: ACCGCAGTACTAAGGGAACAATAAGTTCTCTATTGTTCCCTTAGTACTGCTTTTTC
antisense: TGCAGAAAAAGCAGTACTAAGGGAACAATAGAGAACTTATTGTTCCCTTAGTACTG
modifications: target site or template, no part of the molecule

Legend:
[1] = test system: breast cancer cells expressing ROBO1 (SC-transfected MDA-MB-231/B02); test: Effect of Slit2 on cell migration (96-microwell plates); assay type: cell-based, human; settings: conditioned medium from Slit2-expressing HEK cells; effect seen in SC-transfected cells as opposed to Sh-transfected (ROBO1-silenced) cells
Procedure: The effects of Slit2, […] (RANKL) and osteoprotegerin (OPG) on cell migration were studied using 96-microwell plates (Millipore). Experiments were carried out essentially as described above with minor modifications. Briefly, inserts were loaded with 75 μl of a cell suspension (2×10^5 cells/ml) and 150 μl of chemoattractant was placed in the lower chamber. The chemoattractant consisted of culture medium containing 0.5% (v/v) fetal calf serum with or without RANKL, OPG or the conditioned medium from Slit2-expressing HEK cells. Remaining of the experiments was as described above.

ROBO1 = test: Confocal microscopy of ROBO1 immunostaining; assay type: cell-based, human; settings: ShRNA-transfected vs scrambled-transfected cells
Procedure: Confocal microscopy: Subconfluent cell layers were fixed in 4% (w/v) formaldehyde for 30 min, washed three times with PBS and permeabilized for 5 min in PBS containing 0.2% (v/v) Triton-X-100. Permeabilized cells were then incubated with rabbit anti-Robo1 antibody ab7279 (17 μg/ml; AbCam) for 1 h, washed in PBS then incubated with a secondary, FITC-conjugated, anti-rabbit antibody (Sigma). Actin was labeled with phalloidin (Invitrogen) and nuclei were labeled with DAPI. Slides were viewed using confocal microscope Leica TCS-SP2.

ROBO4 mRNA = ROBO4 mRNA expression after ROBO1 silencing; assay type: cell-based, human; settings: ROBO1 silencing in MDA-MB-231/B02 cells
Excerpt: (§1) The small hairpins RNA (siRNA) against human Robo1 were designed with the Promega Si Designer tool. The oligos used were as follows: ShRNA-RB1 forward, 5′-ACCgCAgTACTAAgggAA-CAATAAgTTCTCTATTgTTCCCTTAgTACTgCTTTTTC-3′(SEQ ID NO:1); ShRNA-RB1 reverse, 5′-TgCAgAAAAAgCAg-TACTAAgggAACAATAgAgAACTTATTgTTCCCTT-AgTACTg-3′ (SEQ ID NO:2).
(§2) The shRNAs and corresponding scrambles duplex were synthesized with the psiSTRIKE puromycin kit (Promega) under U6 promoter. MDA-MB-231/B02-Frt11 cells were transfected with the siRNA and scrambles duplex with Transfast Transfection Reagent (Promega), according to the manufacturer's instructions. Selection of the clones was obtained after growing the cells for two weeks in the presence of puromycin (2 μg/ml).
(§3) RNA isolation, reverse transcriptase-polymerase chain reaction (RT-PCR), and quantitative real-time PCR (qPCR): RNA was extracted from cells using the Nucleospin RNA II kit (Macherey-Nagel) and cDNA produced from 2 μg total RNA using the MMLV polymerase Promega. qPCR was performed using SYBR Green qPCR Kit (Finnzymes). Probes were purchased from Invitrogen.

ROBO1 mRNA = test: Quantitative real-time PCR of ROBO1 transcript after ROBO1 silencing; assay type: cell-based, human; settings: clones Sh1.32 and Sh1.33 vs scrambled-transfected SC2.1 and SC2.4 cells
Excerpt: as §1, §2, §3

[2] = test system: MDA-MB-231/B02 human breast cancer cells; test: Scratch wound assay; assay type: cell-based; settings: Sh-transfected vs parental and scrambled-transfected cells; statistically significant
Procedure: Scratch wound assay: Cells were seeded at a concentration of 1×10^5 cells into 24-well plates and cultured for 24 hours at 37° C. in culture medium containing 10% (v/v) fetal calf serum. After incubation, the culture medium was removed and cells were further cultured in medium containing or not containing 5% (v/v) fetal calf serum, at which time a wound scratch was made on the cell monolayer by using a 20-μl micropipette tip. Cells were fixed, stained with crystal violet, and photographed 24 h later. Alternatively, cell migration was monitored by time-lapse videomicroscopy. Microscopic images were recorded, in a time lapse mode, with a CCD camera attached to a phase contrast microscope (Zeiss Axiovert 200M) and the behaviour of migrating cells was tracked over 24 hours using ImageJ software. Analysis of the images was performed using MetaMorph software.

[3] = test system: MDA-MB-231/B02 human breast cancer cells; test: Cell invasion assay (Matrigel-coated inserts); assay type: cell-based; settings: Sh1.32 and Sh1.33 cells vs scrambled-transfected and parental cells
Procedure: Cell migration and invasion assays: Cell migration and invasion assays were performed in 24-well cell culture chambers with 8-μm diameter pore-size inserts (Becton Dickinson), as previously described (Zhang et al., Cancer Res., 67:5821-5830, 2007). Inserts were coated with 100-μl basement membrane Matrigel (3 μg/ml; Becton Dickinson) for 90 min at 37° C. in order to perform cell invasion experiments. Cancer cells (1.5×10^5 cells/ml) were re-suspended in DMEM culture medium containing 0.1% (w/v) bovine serum albumin and 300-μl of this cell suspension were loaded into each insert (upper chamber). The chemoattractant [10% (v/v) fetal calf serum] was placed in the lower chamber (750 μl/well). The plates were incubated for 6 h at 37° C. in a 5% CO2 incubator. After incubation, the inserts were collected carefully, the nonmigrating cells were removed and the migrating cells on the under surface of the inserts were fixed and stained with crystal violet. The membranes were mounted on glass slides and cells were counted under microscope.

Row | Molecule | migration of SC-transfected cells induced by FCS [1] | ROBO1 immunostaining at the plasma membrane (ROBO1) | effect on ROBO4 mRNA expression levels (ROBO4 mRNA) | ROBO1 transcript down regulation (ROBO1 mRNA) [%] | wound closure [2] | invasion [3]
1 | B1 | inhibited the migration |  |  |  |  | 
2 | B2 |  | totally disappeared | did not affect | 90 | faster wound closure | substantial gain in invasion
